In the DeepSol protein solubility set:

Assay: soluble on expression in E. coli; label from the status in PepcDB or PDB records

Question: Which “soluble on expression in E. coli” value does the source give for “MPKFVVIELNDDAATIDLLSYCVKKNFERVSLLTRLEDHPYLRDDQDVVQDDTQSQGTDGMLLQLNDEERQRLMKMISTPGPQTLSMERIQMAPGQGQHILQQHQIPSTSSYTNNSFIYIKSDPQYKDEPQQQSNQFDATVNSVAHGQAGLSTLEMFACNGSPNGGDVLRRKTPSRKAEDSIKATCKVCGHDVMYSPQRTWNLMRHVWIMHQSSKPNQCSICGYSHIKPYVRKHIESQHKHDSNATIIDLKSPELEAEWSQLLDQCFGVTYRKWKHHKEDTQHTVFAAGDEDYGHEHHFSPEEDVMTTL” here?
Answer: not soluble

Question: Which “soluble on expression in E. coli” value does the source give for “MTQVIIDGDACPVTNSIIELTKGTGIFVTVVRSFSHFSTVIQPEHVNIIYVDDGPDAVDYRIVKLVHSDDLVVTQDYGLASLLLNKAKIVMHHKGFIYNQENINTLLEQRHASAQFRKSGGRTKGPAAFTEEDVSKFESIFSNLIHKYFLETEDLEHHHHHH” here?
Answer: soluble

Question: For “MGHHHHHHHHHHSSGHIEGRHMILLEKTQEKKINDKEELIVKEEVETNWDYGCNPYERKIEDLIKYGVVVVDKPRGPTSHEVSTWVKKILNLDKAGHGGTLDPKVTGVLPVALERATKTIPMWHIPPKEYVCLMHLHRDASEEDILRVFKEFTGRIYQRPPLKAAVKRRLRIRKIHELELLDKDGKDVLFRVKCQSGTYIRKLCEDIGEALGTSAHMQELRRTKSGCFEEKDAVYLQDLLDAYVFWKEDGDEEELRRVIKPMEYGLRHLKKVVVKDSAVDAICHGADVYVRGIAKLSKGIGKGETVLVETLKGEAVAVGKALMNTKEILNADKGVAVDVERVYMDRGTYPRMWKRKK”, which “soluble on expression in E. coli” value is on record?
Answer: soluble

Question: With “MKLFERIHQDTEIRQIYDAIGQMEDEEAGWAYHNWFHVTNVVAMTEMILKQLAVSEEYLEAAKIAALLHDVGALQGKAGHALRGKQFAEAYFRKQKICLPYQEEILSSIENHSNGFDSEELMTLALIISDKLDITTSRVAKAGYFVPGMRQFQFLKKIEIMLSEQEVCVSFTAEEELDLEELNAFYFMPKVFKAIAAFSGKIQRRPIVLLNNQEWPVPKQKNPSTVH” as the sequence, how does the “soluble on expression in E. coli” value read?
Answer: not soluble

Question: For “GMAVECIKDKVTRYPERASYSDEDLVAMLDRNFTCTVSFIDGGIPYAIPMMLASEGKTIYLHGSMKSRIYGILKTGQLIAISLLEINGIVLAKEIKNNSINYVSALIFGRPYEIDDTEKKIEVFRLLTEKLVKGRWDNSIKPSYEDLNGVFVFAVKPETFSMKARTGPPHDTSTDDIWSGVLPIQHTISEAGENAPEYVKSLYGKRIFI”, which “soluble on expression in E. coli” value is on record?
Answer: soluble

Question: Which “soluble on expression in E. coli” value does the source give for “MDAIMMEHRNDFWVFGYGSLMWRPGFAHVETVRARLHGYRRSLCIYSHVHRGTPDHPGLVLGLDTGGSCLGIAFRVPGDMTDEVMTYLREREMANKVYHEKKLHLRLADGRIVEAVAYVADRRHRQYAGRMTSEKAAAIIASAQGESGANIDYVTNTLMHLRNMRVRDHALEHINELVLAAASRQANNAALEHHHHHH” here?
Answer: soluble

Question: With “MAHHHHHHMFSRHSLWVPAASHFPKFVEHFNRFLKASPHNVELQKALCYKEEETQLLIIQDPKARQPIFAMAFPFTVTSALCDGSRMGLGTFTSLVDTTTSLHVAAALLPTNDMHVSVSLQTNCVQPITAGEKVVMISRMDKFGKRLAFLSARLLRLDDVYENTVAPTAGRELEELERQLSQYQTLANGTHVKCILTGKS” as the sequence, how does the “soluble on expression in E. coli” value read?
Answer: not soluble

Question: For “MGSDKIHHHHHHMAILLMQKPDNKAKQFICKKLGINNLGITKPGGRGLTQPVVKLELKRPLYAKGNNYNIINNDETDRYWKPAGITKIFLDRLTNCVSQEAGNMALAEGYFSLEDRYTLYFDISKIQQEFVDLNAQEFFRQFDNLKTLGMLADIAIPLQLCNGLDASITNFSDGQFQSVYIYSIVELFKDRNCLTLLDEPDSFLHPEWQFEFPKQVLEITDAAAKSNHILMSSHSASTITTANENLINLFELQDDKIVVNKVNKADIIKSLSAGLISFSESEAHLNIHHALKNTTGAVLFTEGITDEMILETAWTKIFPAQKRSFAIQNAFDRIFLRNLFSREELEKNFPDRIMFALFDFDEAYDDWNGLKKESDSETDPYKGLSKQLKCKHHYAMLLPVPDIQALKHQVLNPEGKPWGKGAQSHLPIELLFYKDEFLGQWFQKKATPGGGEIIEFIGDKVSFAKNFVPTLEATCFEPLKLVFEFIQSKC”, which “soluble on expression in E. coli” value is on record?
Answer: not soluble
